Measured values from patent US20250206841A1 (ADEPT THERAPEUTICS, published 2025).

T1: human Trop-1 (EpCAM) (human, UniProt P16422 24-265, limits assumed)
T1 sequence (looked up): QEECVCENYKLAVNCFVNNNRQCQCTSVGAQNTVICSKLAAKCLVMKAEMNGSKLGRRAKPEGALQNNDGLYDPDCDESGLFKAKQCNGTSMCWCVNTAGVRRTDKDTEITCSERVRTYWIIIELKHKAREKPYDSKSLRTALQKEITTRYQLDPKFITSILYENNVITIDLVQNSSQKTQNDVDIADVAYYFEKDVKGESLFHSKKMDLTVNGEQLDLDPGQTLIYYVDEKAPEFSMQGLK

T2: mouse Trop-2 (mouse, UniProt Q8BGV3 25-270, limits assumed)
T2 construct: also called Kactus Cat #TRP-MM121
T2 sequence (looked up): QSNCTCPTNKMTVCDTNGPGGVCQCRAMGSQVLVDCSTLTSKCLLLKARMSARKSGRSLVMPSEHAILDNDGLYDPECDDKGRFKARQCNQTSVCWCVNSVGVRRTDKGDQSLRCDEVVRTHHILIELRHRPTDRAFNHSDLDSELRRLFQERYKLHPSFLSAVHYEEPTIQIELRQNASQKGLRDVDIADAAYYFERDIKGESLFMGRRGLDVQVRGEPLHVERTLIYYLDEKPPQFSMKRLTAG

T3: human Trop-2 expressed on cell surface (human, UniProt P09758 27-323)
T3 sequence (looked up): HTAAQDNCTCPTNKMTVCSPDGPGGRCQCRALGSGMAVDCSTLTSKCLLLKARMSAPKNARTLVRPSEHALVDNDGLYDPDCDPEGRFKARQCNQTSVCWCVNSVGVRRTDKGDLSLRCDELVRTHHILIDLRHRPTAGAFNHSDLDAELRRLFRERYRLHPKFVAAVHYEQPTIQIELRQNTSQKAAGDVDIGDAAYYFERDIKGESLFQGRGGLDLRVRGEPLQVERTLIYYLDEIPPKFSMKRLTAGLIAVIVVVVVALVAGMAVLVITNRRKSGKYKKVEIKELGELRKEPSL

T4: human Trop-2-His protein (human, UniProt P09758 27-274)
T4 construct: extracellular domain; Assay paragraphs say only 'Trop-2-His'; also called hTrop-2; Kactus Cat #TRP-HM121; not shown: His tag
T4 sequence (looked up): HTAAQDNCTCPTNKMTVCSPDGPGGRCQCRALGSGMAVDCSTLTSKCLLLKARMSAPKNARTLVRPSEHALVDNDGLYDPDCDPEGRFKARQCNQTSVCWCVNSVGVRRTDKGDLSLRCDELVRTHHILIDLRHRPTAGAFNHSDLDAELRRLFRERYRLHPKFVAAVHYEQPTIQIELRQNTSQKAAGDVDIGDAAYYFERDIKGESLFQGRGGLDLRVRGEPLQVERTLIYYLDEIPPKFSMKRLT

T5: cynomolgus Trop-2-His protein (cynomolgus, UniProt P09758 27-274 (human entry))
T5 construct: also called cynmolgus Trop-His; Kactus Cat #TRP-CM121; not shown: His tag
T5 chain: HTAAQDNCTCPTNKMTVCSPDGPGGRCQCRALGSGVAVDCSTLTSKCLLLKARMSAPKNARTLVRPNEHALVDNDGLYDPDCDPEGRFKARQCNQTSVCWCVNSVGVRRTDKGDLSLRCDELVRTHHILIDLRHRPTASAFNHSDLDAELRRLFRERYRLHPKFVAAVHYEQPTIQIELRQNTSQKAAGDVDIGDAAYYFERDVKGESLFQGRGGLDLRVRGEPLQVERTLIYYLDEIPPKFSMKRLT


What was measured:
[1] = target: T1, human Trop-1 (EpCAM); assay: ELISA, similar to Table 24
Description: (§1) Purified antibodies were tested by ELISA to confirm their binding and affinity against human and cynomolgus Trop-2-His protein. Briefly, 96-well Maxisorp plates (Nunc) were coated with 100 μl/well of 0.5 μg/ml human (Kactus Cat #TRP-HM121, or Sino Biological, Cat #10428-HO8H) or cynomolgus Trop-2 protein (Kactus Cat #TRP-CM121, or Sino Biological, Cat #90893-CO8H) diluted in 1×PBS (GIBCO) overnight at 4° C. Plates were washed four times with 300 μl/well washing buffer (1×PBST, diluted from 20×PBST (Thermo Scientific) with distilled water)) and then blocked with 300 μl/well of blocking buffer (1×PBST/3% BSA (BSA, Sigma)) for 2 hours at RT on plate shaker at 100 rpm. Plates were washed and added with 100 μl/well of testing antibodies, which were serial diluted with assay buffer (PBST/1% BSA). The antibodies were incubated at room temperature for 2 hours on plate shaker at 100 rpm. Plates were washed. One hundred microliters (100 μl) of 1:10,000 diluted horseradish peroxidase (HRP) conjugated anti-hIgG antibody (Jackson Immuno Research) was added into each well and incubated at room temperature for 1 hour on plate shaker at 100 rpm. Plates were washed and added with 100 μl/well TMB substrate for color development in dark at room temperature for up to 10 minutes. After addition of 50 μl/well of stop solution (1N H₂SO₄), plates were read at 450 nm on a plate reader (SpectraMax M5). EC₅₀ values were calculated using Graphpad Prism. Sacituzumab govitecan, was used as positive control. Anti-HEL.hIgG1 was used as isotype control.
(§2) Similar assays were performed to test whether the exemplary antibodies of the present disclosure bind to human Trop-1 (EpCAM) or mouse Trop-2 (Kactus, Cat #TRP-MM121) or rat Trop-2 (kactus, Cat #TRP_RM121). No binding of the exemplary antibodies of the present disclosure to human Trop-1 (EpCAM) or mouse or rat Trop-2 has been detected.

[2] = target: T2, mouse Trop-2; assay: ELISA, similar to Table 24
Description: as §1, §2

[3] = target: T3, human Trop-2 expressed on cell surface; assay: cell-based or functional assay
[4] = target: T3, human Trop-2 expressed on cell surface; assay: cell-based or functional assay; remark: listed apart in the source
[5] = target: T4, human Trop-2-His protein; assay: ELISA, coated Trop-2 protein
Description: as §1

[6] = target: T5, cynomolgus Trop-2-His protein; assay: ELISA, coated Trop-2 protein
Description: as §1

[7] = target: T4, human Trop-2-His protein; assay: BLI (Gator Plus), purified Ab on HFC probe
Description: The affinity of the binding of the exemplary anti-Trop-2 antibodies of the present disclosure were determined. Assay was performed using Gator Plus according to the protocol recommended by Gator Bio Inc.. Briefly, human Trop-2-His (Kactus) was 1:4 fold serially diluted starting at 1 μg/ml. After three times of regeneration and neutralization of HFC probe, 1 μg/ml of antibody to be tested in Q buffer was immobilized onto HFC probe. […] The association and dissociation of human Trop-2-His antigen from antibody was measured on BLI machine Gator Plus. Affinity was calculated using Gator Bio analysis software. Blank control was used for reference subtraction. Sacituzumab govitecan was used as positive control.

Binder | binding result [1] | binding result [2] | EC50 of ADCC (NFAT-CD16 reporter), MCF-7 [3] | EC50 of ADCC (NFAT-CD16 reporter), MDA-MB-231 [3] | Internalization %, MCF-7, 0.25 µg/ml, 1 h [4] | Internalization %, MCF-7, 0.25 µg/ml, 2 h [4] | Internalization %, MCF-7, 0.25 µg/ml, 4 h [4] | Internalization %, MCF-7, 0.5 µg/ml, 1 h [4] | Internalization %, MCF-7, 0.5 µg/ml, 2 h [4] | Internalization %, MCF-7, 0.5 µg/ml, 4 h [4] | EC50 [5] | EC50 [6] | Kd [7] | koff [7] | kon [7]
10A9 (antibody, V domains shown, Rabbit-derived clone; LEM construct: VH + rabbit IgG CH1 + human IgG1 CH2-CH3) VH: QSLEESGGDLVQPGASLTLTCKASGFDLNNYAMLWVRQAPGKGLEWIGCIYISGGTTYFASWATGRFAISKTSSTTVTLQMTSLTAADTATYFCARDDGTTSYYLNLWGPGTLVTVSS VL: YDMTQTPASVSAAVGGTVTIKCQASEDIYSLLAWYQQKPGQPPKLLIYGASNLESGVPSRFKGSGSGTEYTLTISDLECDDAATYYCQQAYTIGNIDNAFGGGTEVVVK | no binding | no binding | 0.32 nM | 0.06 nM | 15% | 33% | 45% | 26% | 39% | 49% | 0.017 nM | 0.015 nM | 0.18 nM | 8.2e-05 s⁻¹ | 448000 M⁻¹ s⁻¹
5D4 (antibody, V domains shown, Rabbit-derived clone; LEM construct: VH + rabbit IgG CH1 + human IgG1 CH2-CH3) VH: QQLEESGGGLVKPEGSLTLTCKGSGFDFSGTYWMWWVRQAPGKGLEWIACIYVGSGSSTYYASWAKGRFTISSTSSTAVTLQATSLTAADTATYFCARGATNNVFMNYFNLWGPGTLVTVSS VL: FEMTQTPSSVSEPVGGTVTIKCQASEDISSNLGWYQQKPGQPPKLLIYGASTLASGVPSRFKGSGSGTEFTLTISDLECADAATYYCQTSYYIDDGVNGFGGGTEVVVK | no binding | no binding | 0.57 nM | 0.07 nM | 44% | 52% | 64% | 62% | 59% | 74% | 0.016 nM | 0.014 nM | 0.03 nM | 1.3e-05 s⁻¹ | 522000 M⁻¹ s⁻¹
74F11/15F5 (antibody, human IgG1, V domains shown, LEM construct: VH + rabbit IgG CH1 + human IgG1 CH2-CH3) VH: QEQLKESGGGLVQPGGSLKLSCKASGFDFNNYGMSWVRQAPGKGLEWIAYIYPAFHNTYYANWVNGRFTISSDNAQNTVDLQLNSLTAADTATYFCARDAGSTDYNFNLWGPGTLVTVSS VL: DVVMTQTPASVEAAVGGTVTIKCQASEDIERYLAWYQQKPGQPPKLLIYEASKLPSGVSSRFSGSGYGTEFTLTISGVECADAATYYCQQALTIGYVDNPFGGGSEVVVK | no binding | no binding | 0.27 nM | 0.09 nM | 22% | 35% | 64% | 22% | 54% | 50% | 0.013 nM | 0.014 nM | 0.01 nM | 9e-06 s⁻¹ | 707000 M⁻¹ s⁻¹

More lines, in order of falling EC50 [5], values ahead:

binding result [1] | binding result [2] | EC50 of ADCC (NFAT-CD16 reporter), MCF-7 [3] | EC50 of ADCC (NFAT-CD16 reporter), MDA-MB-231 [3] | Internalization %, MCF-7, 0.25 µg/ml, 1 h [4] | Internalization %, MCF-7, 0.25 µg/ml, 2 h [4] | Internalization %, MCF-7, 0.25 µg/ml, 4 h [4] | Internalization %, MCF-7, 0.5 µg/ml, 1 h [4] | Internalization %, MCF-7, 0.5 µg/ml, 2 h [4] | Internalization %, MCF-7, 0.5 µg/ml, 4 h [4] | EC50 [5] | EC50 [6] | Kd [7] | koff [7] | kon [7] | Binder
no binding | no binding | 0.61 nM | 0.11 nM | 59% | 57% | 62% | 42% | 56% | 73% | 0.018 nM | 0.023 nM | 0.1 nM | 5.1e-05 s⁻¹ | 489000 M⁻¹ s⁻¹ | 5D4-1 (antibody, V domains shown) VH: QQLEESGGGLVKPEGSLTLTCKGSGFDFSGTYWMWWVRQAPGKGLEWIAPIYVGSGSSTYYASWAKGRFTISSTSSTAVTLQATSLTAADTATYFCARGATNNVFMNYFNLWGPGTLVTVSS VL: FEMTQTPSSVSEPVGGTVTIKCQASEDISSNLGWYQQKPGQPPKLLIYGASTLASGVPSRFKGSGSGTEFTLTISDLEPADAATYYCQTSYYIDDGVNGFGGGTEVVVK
no binding | no binding | 0.52 nM | 0.08 nM | 51% | 67% | 58% | 23% | 43% | 61% | 0.015 nM | 0.018 nM | 0.12 nM | 6e-05 s⁻¹ | 487000 M⁻¹ s⁻¹ | 5D4-2 (antibody, V domains shown) VH: QQLEESGGGLVKPEGSLTLTCKGSGFDFSGTYWMWWVRQAPGKGLEWIASIYVGSGSSTYYASWAKGRFTISSTSSTAVTLQATSLTAADTATYFCARGATNNVFMNYFNLWGPGTLVTVSS VL: FEMTQTPSSVSEPVGGTVTIKCQASEDISSNLGWYQQKPGQPPKLLIYGASTLASGVPSRFKGSGSGTEFTLTISDLEAADAATYYCQTSYYIDDGVNGFGGGTEVVVK
no binding | no binding | 0.28 nM | 0.07 nM | 28% | 37% | 48% | 31% | 47% | 64% | 0.014 nM | 0.016 nM | 2.66 nM | 0.00089 s⁻¹ | 335000 M⁻¹ s⁻¹ | 10A9-2 (antibody, V domains shown) VH: QSLEESGGDLVQPGASLTLTCKASGFDLNNYAMLWVRQAPGKGLEWIGSIYISGGTTYFASWATGRFAISKTSSTTVTLQMTSLTAADTATYFCARDDGTTSYYLNLWGPGTLVTVSS VL: YDMTQTPASVSAAVGGTVTIKCQASEDIYSLLAWYQQKPGQPPKLLIYGASNLESGVPSRFKGSGSGTEYTLTISDLEADDAATYYCQQAYTIGNIDNAFGGGTEVVVK
